The target in assay [1] is CD20 (human (endogenous in Ramos)) (UniProt P11836).
For assay [2] the target is unchanged. Briefly: flow cytometry on cells; 1E6 Ramos cells incubated with 0.5μg (16.7nM) or 1μg (33.3nM) of the RTX variant (non-saturating amounts); bound antibody detected with FITC murine monoclonal anti human kappa light chain antibody; read-out: MFI of the variant divided by MFI of the IgG1 control. In general terms: A flow cytometer gives signals particle by particle.

Assay [3] has the same target. The source holds these as a separate data set.

Chain of UniProt P11836 (P11836 whole entry): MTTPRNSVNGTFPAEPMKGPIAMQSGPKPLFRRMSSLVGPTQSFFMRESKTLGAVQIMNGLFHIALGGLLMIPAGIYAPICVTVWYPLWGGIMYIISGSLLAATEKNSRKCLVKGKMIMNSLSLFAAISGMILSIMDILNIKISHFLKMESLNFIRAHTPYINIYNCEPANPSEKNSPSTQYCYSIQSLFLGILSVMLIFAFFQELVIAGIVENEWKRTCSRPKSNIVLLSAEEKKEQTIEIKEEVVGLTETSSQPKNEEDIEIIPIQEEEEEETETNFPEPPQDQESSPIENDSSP

For Rituximab IgG1 a1 (antibody), the apoptosis of Ramos cells after 24h (AnnexinV-FITC positive cells, absolute), 2000ng antibody, no crosslinker in assay [1] is 11 % of cells.
Take Rituximab IgG2 (antibody): in assay [2], the IgG1 signal ratio (MFI of RTX variant divided by MFI of IgG1 control) at 0.5μg came to 0.37 and the IgG1 signal ratio (MFI of RTX variant divided by MFI of IgG1 control) at 1μg came out at 0.42. This substance returned an apoptosis of Ramos cells after 24h, normalised to the IgG1 control without crosslinker (100%) (% of IgG1 control) in assay [3] of 546. Besides, in assay [1], the apoptosis of Ramos cells after 24h (AnnexinV-FITC positive cells, absolute), 2000ng antibody, no crosslinker was 49 % of cells.
Rituximab IgG4P (antibody): in assay [3], the apoptosis of Ramos cells after 24h, normalised to the IgG1 control without crosslinker (100%) (% of IgG1 control) is 441. The apoptosis of Ramos cells after 24h (AnnexinV-FITC positive cells, absolute), 2000ng antibody, no crosslinker in assay [1] was 41 % of cells.

Source of the values: paper PMC4694715.
